Results published in patent US20180155426A1 (SANFORD BURNHAM PREBYS MEDICAL DISCOVERY INSTITUTE, published 2018).

Experiments:
[1] = target: T1, huBTLA:huIgG recombinant fusion protein (human, UniProt Q7Z6A9 31-157, limits assumed); test: ELISA screen against huBTLA:huIgG (with purified huIgG as counter-screen)
T1 construct: Produced in 293T cells; Used as the immunogen and as the ELISA screening antigen; not shown: human IgG portion
T1 sequence (looked up): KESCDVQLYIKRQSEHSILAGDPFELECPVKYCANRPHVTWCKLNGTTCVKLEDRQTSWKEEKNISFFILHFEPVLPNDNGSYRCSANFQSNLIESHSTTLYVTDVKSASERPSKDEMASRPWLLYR

[2] = target: T2, human BTLA expressed on cells (human, UniProt Q7Z6A9 31-289); test: flow cytometry on MEF cells expressing huBTLA compared to non-BTLA expressing parental cells
T2 construct: whole, on cells; also called huBTLA; B and T lymphocyte attenuator

B1: anti-human BTLA monoclonal antibody clone 6F4 (antibody, V domains shown)
VH: EVQILETGGGLVKPGGSLRLSCATSGFNFNDYFVNWVRQAPGKGLQWVAQIRNKNYNPATYYAESLEGRVTISRDDSKSSVYLQVSSVRAEDTAIYYCSPISSYYHDGSLHYSDYWGQGVMVTVSS
VL: DIQMTQSPSVLSVSVGDRVTLNCKASHNIKNYLNWYQQKLGEAPKLLIYDTVNLQTGIPSRFSGSGSGTDFTVTISSLQPEDVATYFCFQYHSWPYTFGAGTKLELKR
notes: also called rat anti-hBLTA Mab Clone 6F4; Anti BTLA 6F4
B1: binds [1]; binds [2].
